Data set [1] addresses SauUSI (Staphylococcus aureus). Put plainly: SEC-MALS; 1 mg/ml SauUSI injected on Superdex 200 in 50 mM Tris-HCl pH 8, 50 mM NaCl, 1 mM DTT. (In general: SEC sorts molecules by how far they enter the pores of the column.)
Data set [2] deals with T1, SauUSI (Staphylococcus aureus, UniProt Q2FVC3 1-953).
T1 sequence: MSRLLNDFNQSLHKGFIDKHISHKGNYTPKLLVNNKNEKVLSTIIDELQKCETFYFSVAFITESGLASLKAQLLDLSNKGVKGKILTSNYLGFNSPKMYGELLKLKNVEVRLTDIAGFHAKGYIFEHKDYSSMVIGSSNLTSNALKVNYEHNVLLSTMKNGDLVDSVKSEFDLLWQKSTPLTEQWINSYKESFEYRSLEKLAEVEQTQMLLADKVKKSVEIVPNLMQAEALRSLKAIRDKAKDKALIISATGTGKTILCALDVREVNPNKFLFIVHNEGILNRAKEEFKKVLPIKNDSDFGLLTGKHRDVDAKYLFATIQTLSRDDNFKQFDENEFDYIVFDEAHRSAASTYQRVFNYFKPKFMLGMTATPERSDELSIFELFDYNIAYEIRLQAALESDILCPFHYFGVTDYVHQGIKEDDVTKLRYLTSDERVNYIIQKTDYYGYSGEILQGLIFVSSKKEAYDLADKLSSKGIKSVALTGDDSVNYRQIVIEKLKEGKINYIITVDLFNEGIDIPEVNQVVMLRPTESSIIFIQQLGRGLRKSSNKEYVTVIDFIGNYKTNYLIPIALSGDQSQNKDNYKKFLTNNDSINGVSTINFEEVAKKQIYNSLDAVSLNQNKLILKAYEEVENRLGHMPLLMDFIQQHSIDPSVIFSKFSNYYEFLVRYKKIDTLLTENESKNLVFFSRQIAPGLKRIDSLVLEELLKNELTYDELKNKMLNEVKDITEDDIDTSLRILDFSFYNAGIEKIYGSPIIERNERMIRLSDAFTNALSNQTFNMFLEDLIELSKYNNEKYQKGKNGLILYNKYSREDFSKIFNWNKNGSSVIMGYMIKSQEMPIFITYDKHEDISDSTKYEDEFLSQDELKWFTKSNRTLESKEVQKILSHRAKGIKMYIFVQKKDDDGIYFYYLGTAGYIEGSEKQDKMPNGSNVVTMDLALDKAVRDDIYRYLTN
Put plainly: EMSA; 250 nM DNA; shift first detected at 0.1 uM SauUSI (0.05-1.6 uM tested); Protein and DNA incubated 20 min on ice; 5% native PAGE, ethidium bromide stain; binding buffer, salt and pH not stated. Conditions: protein: recombinant; tags: His-tag (HisTrap purified); chain copies: 2; blunt.

Here are results for 2 molecules from publication PMC7913695, “Mechanism of DNA cleavage by the endonuclease SauUSI: a major barrier to horizontal gene transfer and antibiotic resistance in Staphylococcus aureus”.

Consider SauUSI (enzyme), for which the stoichiometry N (in general, a count of units in the complex or per binding partner) in data set [1] is 2.

B1: EMSA methylated 60 bp (specific DNA) (dsDNA)
DNA 1: GCCGCGGATCCTTCACAAGACGATTACCGGCGCTGAAAGACCAGCATATGCAATTTGACT
DNA 2: AGTCAAATTGCATATGCTGGTCTTTCAGCGCCGGTAATCGTCTTGTGAAGGATCCGCGGC
modifications: 5-methyl-dC at position 28 of strand 1 and position 31 of strand 2 (both strands)
Take B1: in data set [2], the binding result is listed as “binds”.
